± gives the standard deviation of the averaged measurements.
Assay: total protein half-life in vivo (active degradation + dilution); higher = more stable protein
[1] = E. coli NCM3722 delta-clpP delta-lon delta-hslV, growth: N-lim chemostat, doubling time 6 h
[2] = E. coli NCM3722 delta-clpP, growth: N-lim chemostat, doubling time 6 h
[3] = E. coli NCM3722 delta-hslV, growth: N-lim chemostat, doubling time 6 h
[4] = E. coli NCM3722 delta-lon, growth: N-lim chemostat, doubling time 6 h
[5] = E. coli NCM3722 delta-smpB, growth: N-lim chemostat, doubling time 6 h
[6] = wild type E. coli NCM3722, growth: C-lim chemostat, doubling time 3 h
[7] = wild type E. coli NCM3722, growth: C-lim chemostat, doubling time 6 h
[8] = wild type E. coli NCM3722, growth: C-lim chemostat, doubling time 12 h
[9] = wild type E. coli NCM3722, growth: N-lim chemostat, doubling time 6 h
[10] = wild type E. coli NCM3722, growth: N-lim chemostat, doubling time 12 h
[11] = wild type E. coli NCM3722, growth: P-lim chemostat, doubling time 6 h
[12] = wild type E. coli NCM3722, growth: P-lim chemostat, doubling time 12 h

Row | Sequence | total protein half-life in vivo [1] [h] | total protein half-life in vivo [2] [h] | total protein half-life in vivo [3] [h] | total protein half-life in vivo [4] [h] | total protein half-life in vivo [5] [h] | total protein half-life in vivo [6] [h] | total protein half-life in vivo [7] [h] | total protein half-life in vivo [8] [h] | total protein half-life in vivo [9] [h] | total protein half-life in vivo [10] [h] | total protein half-life in vivo [11] [h] | total protein half-life in vivo [12] [h]
1 | MSSRKELANAIRALSMDAVQKAKSGHPGAPMGMADIAEVLWRDFLKHNPQNPSWADRDRFVLSNGHGSMLIYSLLHLTGYDLPMEELKNFRQLHSKTPGHPEVGYTAGVETTTGPLGQGIANAVGMAIAEKTLAAQFNRPGHDIVDHYTYAFMGDGCMMEGISHEVCSLAGTLKLGKLIAFYDDNGISIDGHVEGWFTDDTAMRFEAYGWHVIRDIDGHDAASIKRAVEEARAVTDKPSLLMCKTIIGFGSPNKAGTHDSHGAPLGDAEIALTREQLGWKYAPFEIPSEIYAQWDAKEAGQAKESAWNEKFAAYAKAYPQEAAEFTRRMKGEMPSDFDAKAKEFIAKLQANPAKIASRKASQNAIEAFGPLLPEFLGGSADLAPSNLTLWSGSKAINEDAAGNYIHYGVREFGMTAIANGISLHGGFLPYTSTFLMFVEYARNAVRMAALMKQRQVMVYTHDSIGLGEDGPTHQPVEQVASLRVTPNMSTWRPCDQVESAVAWKYGVERQDGPTALILSRQNLAQQERTEEQLANIARGGYVLKDCAGQPELIFIATGSEVELAVAAYEKLTAEGVKARVVSMPSTDAFDKQDAAYRESVLPKAVTARVAVEAGIADYWYKYVGLNGAIVGMTTFGESAPAELLFEEFGFTVDNVVAKAKELL | 3.63 ± 0.31 | 3.35 ± 0.19 | 3.03 ± 0.057 | 3.47 ± 0.1 | 3.033 ± 0.021 | 3.22 ± 0.077 | 5.19 ± 0.23 | 9.96 ± 0.12 | 3.15 ± 0.11 | 4.48 ± 0.056 | 5.65 ± 0.089 | 10.7 ± 0.21
2 | MYVAVKGGEKAIDAAHALQESRRRGDTDLPELSVAQIEQQLNLAVDRVMTEGGIADRELAALALKQASGDNVEAIFLLRAYRTTLAKLAVSEPLDTTGMRLERRISAVYKDIPGGQLLGPTYDYTHRLLDFTLLANGEAPTLTTADSEQQPSPHVFSLLARQGLAKFEEDSGAQPDDITRTPPVYPCSRSSRLQQLMRGDEGYLLALAYSTQRGYGRNHPFAGEIRSGYIDVSIVPEELGFAVNVGELLMTECEMVNGFIDPPGEPPHFTRGYGLVFGMSERKAMAMALVDRALQAPEYGEHATGPAQDEEFVLAHADNVEAAGFVSHLKLPHYVDFQAELELLKRLQQEQNHG | – | – | – | – | – | – | – | – | – | – | 0.609 ± 0.46 | 1.36 ± 0.41
3 | MMQPVINAPEIATAREQQLFNGKNFHVFIYNKTESISGLHQHDYYEFTLVLTGRYFQEINGKRVLLERGDFVFIPLGSHHQSFYEFGATRILNVGISKRFFEQHYLPLLPYCFVASQVYRTNNAFLTYVETVISSLNFRETGLEEFVEMVTFYVINRLRHYREEQVIDDVPQWLKSTVEKMHDKEQFSESALENMVALSAKSQEYLTRATQRYYGKTPMQIINEIRINFAKKQLEMTNYSVTDIAFEAGYSSPSLFIKTFKKLTSFTPKSYRKKLTEFNQ | 5.04 ± 0.62 | – | – | – | – | 1.18 ± 0.012 | 1.89 ± 0.2 | 1.55 | – | – | – | –
4 | MDHSLNSLNNFDFLARSFARMHAEGRPVDILAVTGNMDEEHRTWFCARYAWYCQQMMQARELELEH | 2.86 | – | – | – | – | – | – | – | – | – | – | –
5 | MTSGLERLSNLLSKKDSVFVSDLLREAKVNELDETLSTTRLNHLIDKGYERITLQLDLGGESPGYLEKDKHYREADAALLNVIYPTNLSKINTRRKEQV | 4.54 | – | – | – | – | – | – | – | – | – | – | –
6 | MKTIFTVGAVVLATCLLSGCVNEQKVNQLASNVQTLNAKIARLEQDMKALRPQIYAAKSEANRANTRLDAQDYFDCLRCLRMYAE | 7.01 | – | – | – | 5.17 | – | – | 6.54 | – | – | – | > 16
7 | MVKVYAPASSANMSVGFDVLGAAVTPVDGALLGDVVTVEAAETFSLNNLGRFADKLPSEPRENIVYQCWERFCQELGKQIPVAMTLEKNMPIGSGLGSSACSVVAALMAMNEHCGKPLNDTRLLALMGELEGRISGSIHYDNVAPCFLGGMQLMIEENDIISQQVPGFDEWLWVLAYPGIKVSTAEARAILPAQYRRQDCIAHGRHLAGFIHACYSRQPELAAKLMKDVIAEPYRERLLPGFRQARQAVAEIGAVASGISGSGPTLFALCDKPETAQRVADWLGKNYLQNQEGFVHICRLDTAGARVLEN | 5.55 ± 0.88 | 3.7 ± 0.34 | 4.29 ± 0.69 | 5.16 ± 0.65 | 4.35 ± 0.11 | 2.73 ± 0.61 | 5.63 ± 0.58 | 8.58 ± 0.091 | 4.31 ± 0.33 | 6.8 ± 0.37 | 6.04 ± 0.13 | 12.6 ± 0.79
8 | MSGLKQELGLAQGIGLLSTSLLGTGVFAVPALAALVAGNNSLWAWPVLIILVFPIAIVFAILGRHYPSAGGVAHFVGMAFGSRLERVTGWLFLSVIPVGLPAALQIAAGFGQAMFGWHSWQLLLAELGTLALVWYIGTRGASSSANLQTVIAGLIVALIVAIWWAGDIKPANIPFPAPGNIELTGLFAALSVMFWCFVGLEAFAHLASEFKNPERDFPRALMIGLLLAGLVYWGCTVVVLHFDAYGEKMAAAASLPKIVVQLFGVGALWIACVIGYLACFASLNIYIQSFARLVWSQAQHNPDHYLARLSSRHIPNNALNAVLGCCVVSTLVIHALEINLDALIIYANGIFIMIYLLCMLAGCKLLQGRYRLLAVVGGLLCVLLLAMVGWKSLYALIMLAGLWLLLPKRKTPENGITT | – | – | – | 3.09 | 5.32 | – | – | – | – | – | 4.1 | 12
9 | MVKTQRVVITPGEPAGIGPDLVVQLAQREWPVELVVCADATLLTNRAAMLGLPLTLRPYSPNSPAQPQTAGTLTLLPVALRAPVTAGQLAVENGHYVVETLARACDGCLNGEFAALITGPVHKGVINDAGIPFTGHTEFFEERSQAKKVVMMLATEELRVALATTHLPLRDIADAITPALLHEVIAILHHDLRTKFGIAEPRILVCGLNPHAGEGGHMGTEEIDTIIPVLNELRAQGMKLNGPLPADTLFQPKYLDNADAVLAMYHDQGLPVLKYQGFGRGVNITLGLPFIRTSVDHGTALELAGRGKADVGSFITALNLAIKMIVNTQ | 4.27 | 3.54 | 3.58 | 4.45 ± 0.1 | 4.72 ± 0.25 | 2.98 ± 0.15 | 5.541 ± 0.046 | 9.78 ± 0.65 | 4.33 | 7.247 ± 0.038 | 4.67 ± 0.49 | 9.91 ± 0.5
10 | MSKLDLNALNELPKVDRILALAETNAELEKLDAEGRVAWALDNLPGEYVLSSSFGIQAAVSLHLVNQIRPDIPVILTDTGYLFPETYRFIDELTDKLKLNLKVYRATESAAWQEARYGKLWEQGVEGIEKYNDINKVEPMNRALKELNAQTWFAGLRREQSGSRANLPVLAIQRGVFKVLPIIDWDNRTIYQYLQKHGLKYHPLWDEGYLSVGDTHTTRKWEPGMAEEETRFFGLKRECGLHEG | 4.38 ± 0.8 | 4.21 ± 0.56 | 1.29 ± 0.27 | 1.64 ± 0.023 | 1.37 ± 0.087 | 2.11 ± 0.095 | 2.91 ± 0.58 | 4.05 ± 0.29 | 1.47 ± 0.077 | 1.721 ± 0.012 | 3.28 ± 0.37 | 6.15 ± 0.27
